Measurements published in US20240368574A1.

Tests used:
Assay in all cases: cell-based or functional assay
[1] = biological target: FKBP.FRB.ΔC9 expressed from pBP1311-pSFG.FKBP.FRB.ΔC9.T2A-ΔCD19
[2] = biological target: FRB.FKBP.ΔC9 expressed from pBP1310-pSFG.FRB.FKBP.ΔC9.T2A-ΔCD19
[3] = biological target: ΔMyr.iMC (MyD88.CD40.Fv'.Fv) expressed from pBP0606-pSFG-k-ΔMyr.iMC.2A-ΔCD19 (human)
[4] = biological target: CD19-CAR-FRBl2 (1st generation CD19-CAR fused to two tandem FRBl domains, co-expressed with iCaspase9 from iC9-CAR(19).FRBl2)
[5] = biological target: Her2-CAR-FRBl2 (1st generation Her2-CAR fused to two tandem FRBl domains)

Chain of FRB.FKBP.ΔC9 expressed from pBP1310-pSFG.FRB.FKBP.ΔC9.T2A-ΔCD19 (P55211 other isoform, or with tags, fused parts or gaps, stated change not applied): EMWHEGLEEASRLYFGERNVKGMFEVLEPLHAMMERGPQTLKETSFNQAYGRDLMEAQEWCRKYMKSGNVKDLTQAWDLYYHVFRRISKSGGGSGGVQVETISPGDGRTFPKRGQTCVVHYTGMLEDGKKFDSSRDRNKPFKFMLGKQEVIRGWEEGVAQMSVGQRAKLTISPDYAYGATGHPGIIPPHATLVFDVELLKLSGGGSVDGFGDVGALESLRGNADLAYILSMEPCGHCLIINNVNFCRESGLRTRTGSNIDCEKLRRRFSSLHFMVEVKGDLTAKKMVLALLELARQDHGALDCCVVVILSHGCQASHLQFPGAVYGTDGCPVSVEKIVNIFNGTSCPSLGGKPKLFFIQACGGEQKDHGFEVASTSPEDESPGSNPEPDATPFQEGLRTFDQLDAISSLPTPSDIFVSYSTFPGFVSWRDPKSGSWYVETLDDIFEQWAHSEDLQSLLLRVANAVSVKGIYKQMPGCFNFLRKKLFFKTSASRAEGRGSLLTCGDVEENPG
Chain of FRBL2.Caspase9 expressed from pBP0668-pSFG-FRBlx2.Caspase9.2A-Q.8stm.CD3zeta (chain, part): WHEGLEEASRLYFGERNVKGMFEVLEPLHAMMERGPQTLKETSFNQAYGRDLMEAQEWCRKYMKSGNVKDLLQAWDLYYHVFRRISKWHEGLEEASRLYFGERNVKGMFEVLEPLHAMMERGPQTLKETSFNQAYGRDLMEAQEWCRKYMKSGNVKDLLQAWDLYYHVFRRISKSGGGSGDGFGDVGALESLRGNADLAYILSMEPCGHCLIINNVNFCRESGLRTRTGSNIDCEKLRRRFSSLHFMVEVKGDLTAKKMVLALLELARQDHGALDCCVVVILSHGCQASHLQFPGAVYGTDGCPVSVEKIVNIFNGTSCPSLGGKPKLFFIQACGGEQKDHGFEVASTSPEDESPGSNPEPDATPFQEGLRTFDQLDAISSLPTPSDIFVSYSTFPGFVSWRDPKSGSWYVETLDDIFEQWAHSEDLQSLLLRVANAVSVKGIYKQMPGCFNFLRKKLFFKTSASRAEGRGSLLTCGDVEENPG
Chain of ΔMyr.iMC (MyD88.CD40.Fv'.Fv) expressed from pBP0606-pSFG-k-ΔMyr.iMC.2A-ΔCD19 (human) (main, as listed by the source mutant): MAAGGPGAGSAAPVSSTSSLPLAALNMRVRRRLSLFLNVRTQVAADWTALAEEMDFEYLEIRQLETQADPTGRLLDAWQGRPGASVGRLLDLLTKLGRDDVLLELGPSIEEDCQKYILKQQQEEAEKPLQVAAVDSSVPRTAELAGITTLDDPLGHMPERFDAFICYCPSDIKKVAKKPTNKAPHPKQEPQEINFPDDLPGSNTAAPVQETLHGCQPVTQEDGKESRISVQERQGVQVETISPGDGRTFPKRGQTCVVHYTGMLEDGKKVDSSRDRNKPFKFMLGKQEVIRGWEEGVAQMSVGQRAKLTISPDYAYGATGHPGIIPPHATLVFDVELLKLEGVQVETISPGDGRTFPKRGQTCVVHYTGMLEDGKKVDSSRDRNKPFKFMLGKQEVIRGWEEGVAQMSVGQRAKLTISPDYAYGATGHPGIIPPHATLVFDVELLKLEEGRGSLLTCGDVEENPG
Chain of FKBP.FRB.ΔC9 expressed from pBP1311-pSFG.FKBP.FRB.ΔC9.T2A-ΔCD19 (P55211 other isoform, or with tags, fused parts or gaps, stated change not applied): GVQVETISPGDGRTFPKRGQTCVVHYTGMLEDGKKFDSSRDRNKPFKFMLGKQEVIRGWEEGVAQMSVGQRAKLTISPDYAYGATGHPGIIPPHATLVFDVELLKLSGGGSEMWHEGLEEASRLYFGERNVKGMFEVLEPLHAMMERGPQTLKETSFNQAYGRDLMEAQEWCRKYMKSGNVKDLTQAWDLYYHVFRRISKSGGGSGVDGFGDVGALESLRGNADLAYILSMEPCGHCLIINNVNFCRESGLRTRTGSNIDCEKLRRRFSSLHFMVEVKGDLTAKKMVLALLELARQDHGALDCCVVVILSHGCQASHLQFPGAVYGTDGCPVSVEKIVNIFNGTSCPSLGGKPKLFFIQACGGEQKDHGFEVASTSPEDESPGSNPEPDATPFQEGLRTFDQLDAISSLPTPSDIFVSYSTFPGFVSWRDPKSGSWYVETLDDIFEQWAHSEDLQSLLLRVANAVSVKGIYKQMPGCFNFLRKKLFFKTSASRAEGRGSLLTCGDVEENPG

## FKBP.FRB.ΔC9 expressed from pBP1311-pSFG.FKBP.FRB.ΔC9.T2A-ΔCD19
[1]
  rapamycin concentration (small molecule) at which the construct was still highly active, caspase 3/7 and SRα-SEAP assays in transfected 293 cells: 100 pM

## FRB.FKBP.ΔC9 expressed from pBP1310-pSFG.FRB.FKBP.ΔC9.T2A-ΔCD19
[2]
  rapamycin concentration (small molecule) at which the construct was still highly active, caspase 3/7 and SRα-SEAP assays in transfected 293 cells: 100 pM

## FRBL2.Caspase9 expressed from pBP0668-pSFG-FRBlx2.Caspase9.2A-Q.8stm.CD3zeta
[3]
  rapamycin concentration at which doubly transduced (CD34+CD19+) primary T cells were eliminated, flow cytometry after 24 hours: 2 nM

## iCaspase-9 as used in Example 17
[4]
  SRα-SEAP reporter activity of transfected 293 cells after overnight rapamycin (small-molecule heterodimerizer): 50 % decrease
[5]
  SRα-SEAP reporter activity of transfected 293 cells after overnight rapamycin (small-molecule heterodimerizer): 50 % decrease
